Results reported in IntAct's records for PubMed 14507921.

B1: Anthrax toxin receptor 1 (Homo sapiens), Q9H6X2-2 (parent)
chain: MATAERRALGIGFQWLSLATLVLICAGQGGRREDGGPACYGGFDLYFILDKSGSVLHHWNEIYYFVEQLAHKFISPQLRMSFIVFSTRGTTLMKLTEDREQIRQGLEELQKVLPGGDTYMHEGFERASEQIYYENRQGYRTASVIIALTDGELHEDLFFYSEREANRSRDLGAIVYCVGVKDFNETQLARIADSKDHVFPVNDGFQALQGIIHSILKKSCIEILAAEPSTICAGESFQVVVRGNGFRHARNVDRVLCSFKINDSVTLNEKPFSVEDTYLLCPAPILKEVGMKAALQVSMNDGLSFISSSVIITTTHCSDGSILAIALLILFLLLALALLWWFWPLCCTVIIKEVPPPPAEESEENKIK

Variants of: B1
Details: with pag_bacan pagA

| Variant | effect of a mutation on the interaction |
| --- | --- |
| T118A | decreasing interaction |
| D50A | decreasing interaction |
